Results reported in patent publication US9097721B2, “Compositions comprising engineered phosphothreonine affinity reagents, methods of making, and methods of use” (The Board of Trustees of the University of Illinois, priority 2012, dated 2015).

Molecular target: T1, Rad9-pT peptide (Saccharomyces cerevisiae, UniProt P14737)
T1 construct: host or cells: chemical synthesis
Assay: Phage ELISA of phage-displayed FHA1 domains
Type: binding, yeast
Details: for binding to Rad9-pT peptide when phage-displayed: M13 protein III fusion, DsbA signal sequence; for binding to Rad9-pT peptide when phage-displayed with chaperones: co-expression of dsbA, dsbC, fkpA, skp and surA
Description: To amplify the phage particles displaying the recombinant FHA1 variants, TG1 bacterial cells (5 mL; Stratagene) harboring the phagemid DNA were infected at mid-log (OD600nm=0.5-0.6) with M13K07 helper phage (New England Biolabs) at a multiplicity of infection (MOI) of 20 for 1 h at 37° C. at 150 rpm. Infected cells were centrifuged, and the pellet was resuspended in fresh Luria Bertani medium (LB: 10 g Tryptone, 5 g Yeast extract, and 10 g NaCl per liter) supplemented with 50 μg/mL carbenicillin and 50 μg/ml kanamycin, and phage were amplified overnight at 30° C. at 250 rpm. All of the phage ELISA steps were performed at room temperature. Biotinylated peptides (100 μL, 5 μg/mL) were immobilized on Nunc MaxiSorp flat-bottom 96 well plates (Thermo Fisher Scientific) via NeutrAvidin™ Biotin binding protein (100 μL, 10 μg/mL; Thermo Fisher Scientific) and blocked with 2% skim milk in 1×PBS (200 μL per well). After washing with Phosphate Buffered Saline (PBS: 0.14 M Sodium Chloride, 0.003 M Potassium Chloride, 0.002 M Potassium Phosphate, and 0.01 M Sodium Phosphate), the wells were incubated with the phage supernatant (100 μL of phage diluted 1:2 with PBS containing 0.1% Tween 20 (PBST)) for 1 h and washed three times with PBST. The binding phage were detected using anti-M13 antibody conjugated to horse radish peroxidase (HRP) (GE Healthcare) diluted 1:5000 with PBST. After washing away the unbound antibody, the chromogenic substrate for HRP; 2,2′-Azinobis (3-ethylbenzothiazoline-6-Sulfonic Acid) diammonium salt (Thermo Fisher Scientific), supplemented with hydrogen peroxide was added (100 μL per well), and the absorbance of the green colored complex was measured at 405 nm on POLARstar OPTIMA microtiter plate reader (BMG Labtech).

B1: WT: N-terminal FHA1 domain of S. cerevisiae Rad53 protein kinase, residues 1-170 (SEQ ID NO:7) (protein, listed as Saccharomyces cerevisiae)
chain: MENITQPTQQSTQATQRFLIEKFSQEQIGENIVCRVICTTGQIPIRDLSADISQVLKEKRSIKKVWTFGRNPACDYHLGNISRLSNKHFQILLGEDGNLLLNDISTNGTWLNGQKVEKNSNQLLSQGDEITVGVGVESDILSLVIFINDKFKQCLEQNKVDRIRSNLKNT
Which results are given for B1?
binding to Rad9-pT peptide when phage-displayed: non-functional; binding to Rad9-pT peptide when phage-displayed (listed as WT FHA1 domain): did not bind; binding to Rad9-pT peptide when phage-displayed (listed as wild-type (WT) FHA1 domain): no binding was detected; binding to Rad9-pT peptide when phage-displayed via TorA signal sequence: only detected when the phage particles were concentrated 50 times; binding to Rad9-pT peptide when phage-displayed via TorA signal sequence (listed as WT FHA1 domain): only partially restored; binding to Rad9-pT peptide when phage-displayed with chaperones: remained nonfunctional; binding to Rad9-pT peptide when phage-displayed with chaperones (listed as WT FHA1 domain): did not restore the activity
